According to the FLAb antibody collection (doi:10.1101/2023.12.08.570889):
Substitutions are numbered along the chain they refer to.

B1: unnamed (protein)
chain 1: QMQLVESGGGVVQPGRSLRLSCAASGFTFSTYAMHWVRQAPGKGLEWVAVIWYDGSNKHYADSVKGRFTITRDNSKNTLNLQMNSLRAEDTAVYYCARAPRYYDYWEAFDVWGQGTMVTVSS
chain 2: SYVLTQPPSVSVAPGQTARITCGGNNLGSKSVHWYQQKPGQAPVLVVYDDSDRPSWIPERFSGSNSGNTATLTISRGEAGDEADYYCQVWDSSSDHVVFGGGTKLTVL
B2: unnamed (protein)
chain 1: B1 chain 1 with Y32F, S56G, Y103D, D104E, W106Y
chain 2: B1 chain 2
B3: unnamed (protein)
chain 1: B1 chain 1 with Y32F, Y103D, D104E, Y105A, W106Y
chain 2: B1 chain 2

Target: TSLP, Q969D9
Test: Kd (SPR)

**Q.** With B1 as the binder, how does the Kd read?
**A.** 285 nM

**Q.** How did the Kd turn out when B2 was run?
**A.** 217 nM

**Q.** Which Kd does the source give for B3 here?
**A.** 502 nM
